Experimental data taken from US20170128520A1 (E AND B TECHNOLOGIES, published 2017).

T1: endothelial nitric oxide synthase (eNOS) of cultured bovine aorta endothelial cells (BAEC) (bovine, UniProt P29473 2-1205)
T1 sequence (looked up): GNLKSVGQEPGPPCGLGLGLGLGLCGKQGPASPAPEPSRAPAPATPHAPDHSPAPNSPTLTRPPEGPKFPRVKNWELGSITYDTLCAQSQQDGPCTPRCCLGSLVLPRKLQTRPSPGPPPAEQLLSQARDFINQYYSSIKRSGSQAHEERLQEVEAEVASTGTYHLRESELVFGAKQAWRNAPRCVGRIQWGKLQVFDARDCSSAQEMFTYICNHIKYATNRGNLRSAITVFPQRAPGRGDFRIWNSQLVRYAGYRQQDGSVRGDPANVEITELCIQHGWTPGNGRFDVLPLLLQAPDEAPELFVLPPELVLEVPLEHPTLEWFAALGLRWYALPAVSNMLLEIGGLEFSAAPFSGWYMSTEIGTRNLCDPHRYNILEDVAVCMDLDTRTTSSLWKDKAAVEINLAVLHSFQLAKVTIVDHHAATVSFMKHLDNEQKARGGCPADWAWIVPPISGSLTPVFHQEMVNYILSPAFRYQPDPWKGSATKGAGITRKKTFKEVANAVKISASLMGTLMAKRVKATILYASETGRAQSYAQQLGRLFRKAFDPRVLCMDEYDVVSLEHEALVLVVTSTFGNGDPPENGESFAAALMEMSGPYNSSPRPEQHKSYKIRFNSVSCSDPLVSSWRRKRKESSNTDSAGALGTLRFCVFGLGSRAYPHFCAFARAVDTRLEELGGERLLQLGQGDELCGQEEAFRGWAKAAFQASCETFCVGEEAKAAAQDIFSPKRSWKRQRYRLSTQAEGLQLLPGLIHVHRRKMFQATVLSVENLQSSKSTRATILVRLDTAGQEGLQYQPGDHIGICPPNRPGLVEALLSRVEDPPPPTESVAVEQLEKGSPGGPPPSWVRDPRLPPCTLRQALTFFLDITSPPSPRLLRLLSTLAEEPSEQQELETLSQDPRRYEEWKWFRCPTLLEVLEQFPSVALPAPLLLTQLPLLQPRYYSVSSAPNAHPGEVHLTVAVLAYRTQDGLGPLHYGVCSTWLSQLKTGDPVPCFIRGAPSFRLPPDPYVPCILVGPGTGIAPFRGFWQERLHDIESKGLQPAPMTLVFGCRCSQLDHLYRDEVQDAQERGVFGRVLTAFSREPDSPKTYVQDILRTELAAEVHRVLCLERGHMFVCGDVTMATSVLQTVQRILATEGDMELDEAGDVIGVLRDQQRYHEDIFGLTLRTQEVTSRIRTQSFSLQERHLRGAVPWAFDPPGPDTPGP


Target: T1, endothelial nitric oxide synthase …
Experiment: cell-based or functional assay

| Binder | EC50 of inhibition of VEGF-induced NO release by BAEC (dose response, non-linear regression) [µM] |
| --- | --- |
| RQIKIWFQNRRMKWKKDGIWKASFTTFTVTKYWFYR [AP-Cav (SEQ ID NO. 2/SEQ ID NO. 5)] | 1.8 |
| RRPPRDGIWKASFTTFTVTKYWFYR [Endo5-Cav (SEQ ID NO. 1/SEQ ID NO. 5)] | 7.5 |
